The values below come from patent US20200347130A1 (JIANGSU HENGRUI MEDICINE, published 2020).

Test [1] deals with T1, Biotinylated CD96 antigen (human, UniProt P40200-2 22-503, limits assumed, biotinylated).
T1 sequence (looked up): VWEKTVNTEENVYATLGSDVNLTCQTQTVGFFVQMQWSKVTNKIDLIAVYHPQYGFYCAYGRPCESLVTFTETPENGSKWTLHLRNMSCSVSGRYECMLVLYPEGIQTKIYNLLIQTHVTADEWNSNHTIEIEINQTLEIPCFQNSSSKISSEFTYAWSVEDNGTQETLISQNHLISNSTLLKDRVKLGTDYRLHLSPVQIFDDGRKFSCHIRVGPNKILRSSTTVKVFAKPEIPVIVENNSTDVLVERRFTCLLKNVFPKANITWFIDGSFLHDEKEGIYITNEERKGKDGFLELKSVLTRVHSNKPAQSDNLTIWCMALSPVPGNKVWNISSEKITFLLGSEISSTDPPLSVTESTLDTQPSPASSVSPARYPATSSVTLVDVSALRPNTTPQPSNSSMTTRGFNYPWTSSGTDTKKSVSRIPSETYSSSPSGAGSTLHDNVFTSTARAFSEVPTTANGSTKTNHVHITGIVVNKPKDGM
Nature of the test: competition ELISA: antibody B pre-incubated with biotinylated CD96 antigen, added to a plate coated with antibody A, HRP-streptavidin, OD450; competitor: coated h1718-012. As to the method:
(§1) Competitive assays of different antibodies binding to CD96 protein were used to classify binding epitopes of the antibodies. The specific experimental methods are as follows:
(§2) Antibody A was diluted to a concentration of 2 μg/ml with PBS buffer (Shanghai Yuanpei Biotechnology Co., Ltd. Cat No. B320), pH 7.4, added to a 96-well microtiter plate (Corning, Cat No. CLS3590-100EA) at a volume of 50 μl/well, and coated at 4° C. overnight. After discarding the liquid, 250 μl/well of 5% skim milk (BD skim milk, Cat No. 232100) blocking solution diluted with PBS was added, and the plate was incubated at 37° C. for 3 hours. After blocking, the blocking solution was discarded, and the plate was washed 5 times with PBST buffer (pH 7.4 PBS containing 0.05% tween-20) and stored for later use. Antibody B was diluted to 40 μg/ml and 8 μg/ml with 1% BSA, and Biotinylated CD96 antigen was simultaneously diluted to 4 μg/mL. Subsequently, antibody B and antigen were mixed in a 1:1 volume ratio, pre-incubated at 37° C. for 45 minutes, added into the enzyme plate coated with antibody A, thus incubating the plate in an incubator at 37° C. for 1.5 hours. […] The absorption value was read at 450 nm with a NOVOStar microplate reader, and the OD value was used to determine whether A and B CD96 antibodies compete with each other. […]

For test [2], the target named is T2, CD96 extracellular region with His tag (CD96-His) (human, UniProt P40200 22-519).
T2 construct: also called CD96-ECD-His; Bio-CD96-His (biotin-labelled form)
T2 sequence: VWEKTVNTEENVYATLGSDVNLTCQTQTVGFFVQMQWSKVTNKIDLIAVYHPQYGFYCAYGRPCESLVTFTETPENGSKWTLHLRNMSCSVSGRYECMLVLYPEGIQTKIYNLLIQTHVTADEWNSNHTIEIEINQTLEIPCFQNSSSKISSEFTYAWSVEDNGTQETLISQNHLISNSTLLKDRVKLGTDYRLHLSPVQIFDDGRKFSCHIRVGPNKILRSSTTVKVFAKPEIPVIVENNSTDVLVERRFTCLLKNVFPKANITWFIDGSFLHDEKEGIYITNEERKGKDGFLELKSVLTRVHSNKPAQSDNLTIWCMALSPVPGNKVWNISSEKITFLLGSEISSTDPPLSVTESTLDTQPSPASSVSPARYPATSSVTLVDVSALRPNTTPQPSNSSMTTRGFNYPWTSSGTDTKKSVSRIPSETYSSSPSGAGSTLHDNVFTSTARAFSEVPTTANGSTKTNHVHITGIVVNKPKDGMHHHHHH
Briefly: blocking cell ELISA: antibody pre-mixed with Bio-CD96-His, added to fixed CD155-CHO cells, HRP-streptavidin, OD450; blocked ligand: human CD155 on CHO cells. On the procedure:
CD155-CHO cells (constructed by Shanghai Hengrui) were seeded in 96-well culture plates at a density of 9×10⁴/100 μL/well and cultured overnight. After aspirating the supernatant, the plate was washed once with PBS, 100 μl/well of immunostaining fixation solution (Biyuntian, Cat No. P0098) was added and fixed for one hour at room temperature, and the plate was washed three times with PBS. After discarding the liquid, 250 μl/well of 5% skim milk (BD, Cat No. 232100) blocking solution diluted with PBS was added, and the plate was blocked in an incubator at 37° C. for 2.5 hours. After blocking, the blocking solution was discarded, subsequently, the plate was washed 4 times with PBST buffer (pH 7.4 PBS containing 0.05% tween-20). […] The absorption value was read at 450 nm with a NOVOStar microplate reader, and the EC50 value of the effect of CD96 antibody on blocking the binding between the antigens and CD155-CHO cells was calculated (see FIG. 2 and Table 16).
On the technique in general: ELISA stands for enzyme-linked immunosorbent assay.

The target in test [3] is T1, Biotinylated CD96 antigen. Nature of the test: competition ELISA: antibody B pre-incubated with biotinylated CD96 antigen, added to a plate coated with antibody A, HRP-streptavidin, OD450; competitor: coated h1722-010. As to the method: as §1, §2

B1: h1719-010 (antibody, V domains shown)
VH: EVTLKESGPVLVKPTETLTLTCTVSGFSLSSYGVSWVRQPPGKGLEWLGVIWGDGNTNYHSVLISRLTISKDTSKSQVVLTLTNMDPVDTATYYCAKQNYYGSRYGYPIDYWGQGTTVTVSS
VL: DIQMTQSPSSVSASVGDRVTITCKATQDVGTAVAWYQQKPGKAPKLLIYWASTRHTGVPSRFSGSGSGTDFTLTISSLQPEDFATYYCQQYGSSVLTFGGGTKVEIK
notes: Only variable regions are tied to this name
Turning to B1, the “IC50 (read off the curve)” value in test [1] and in test [2] was around 0.6 nM throughout.

B2: h1722-010 (antibody, V domains shown)
VH: EVQLVQSGAEVKKPGSSVKVSCKASGGTFSDYWMHWVRQAPGQGLEWIGMLHPNSGTTSFNEKFKIRVTITADKSTSTAYMELSSLRSEDTAVYYCASDYSGPFAYWGQGTLVTVSS
VL: DIQLTQSPSSLSASVGDRVTITCSASSSVNYIHWYQQKPGKAPKRWIFDTSKLASGVPSRFSGSGSGTDYTLTISSLQPEDFATYYCQQWRSNPLTFGQGTKLEIK
notes: Only variable regions are tied to this name; also called M722-010
As to B2, the “IC50 (read off the curve)” value in test [3] is around 0.5 nM.
